The values below are quoted from earlier work in patent publication US8623366B2, “Methods for treating visceral pain by administering antagonist antibodies directed against calcitonin gene-related peptide” (Labrys Biologics, Inc., priority 2009, dated 2014).

Numbering of substitutions follows the chain as printed. Names and notes keep the numbering of the source.

In data set [1] the target is T1, α-rat CGRP (Rattus norvegicus, UniProt P01256).
T1 sequence (P01256 83-119 limits assumed): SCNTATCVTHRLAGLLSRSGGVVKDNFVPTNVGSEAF
Particulars: Table 6 reproduced from WO2007/054809; cited from earlier work.

Data set [2] concerns the target T2, human α-CGRP (Homo sapiens, UniProt P06881).
T2 sequence (P06881 83-119 limits assumed): T1 sequence (P01256 83-119 limits assumed) with S1A, N3D, D25N, E35K
The following applies: Table 6 reproduced from WO2007/054809; cited from earlier work.

Turning to “M8: G1 variant: HC-FW3 L99N A100G [Clone M8]”, the Kd – broadly, the equilibrium constant for the complex coming apart – in data set [1] was 41.4 nM; in data set [2], 0.58 nM. As to “M10: G1 variant: HC-FW3 L99S A100S [Clone M10]”, the figures for the Kd in data set [1] and in data set [2] were 83.9 nM and 1.08 nM, respectively.

In the case of “M15: G1 variant: HC-FW3 L99T A100P [Clone M15]”, the dissociation constant Kd in data set [1] is 63.9 nM; in data set [2] it was 0.1 nM. Consider “M2: G1 variant: HC-FW3 L99A A100R [Clone M2]”, for which the Kd in data set [1] is 58 nM; in data set [2], 3 nM.

“M18: G1 variant: HC-FW3 L99V A100G [Clone M18]”: the results for the Kd in data set [1] and in data set [2] were 67.8 nM and 0.44 nM, respectively.

B1: M46: G1 variant: L1 R28N; L2 G50A L56T; H2 E54K A57N S58E H61F; HC-FW3 L99T A100V (antibody, chains of the INN, looked up, variant L:R28N L:G50A L:L56T H:E54K H:A57N H:S58E H:H61F H:L99T H:A100V, V domains shown)
VH: EVQLVESGGGLVQPGGSLRLSCAASGFTFSNYWISWVRQAPGKGLEWVAEIRSKSDNEATFYAEAVKGRFTISRDNAKNSLYLQMNSLRAEDTAVYYCTVYFDYGLAIQNYWGQGTLVTVSS
VL: EIVLTQSPATLSLSPGERATLSCKASKNVTTYVSWYQQKPGQAPRLLIYAASNRYTGIPARFSGSGSGTDFTLTISSLEPEDFAVYYCSQSYNYPYTFGQGTKLEIK
Take B1: the Kd is 163 nM in data set [1] and 3.37 nM in data set [2].

B2: M47: G1 variant: L1 R28N; L2 G50A L56T; H2 E54K A57N S58G; HC-FW3 L99T A100V (antibody, chains of the INN, looked up, variant L:R28N L:G50A L:L56T H:E54K H:A57N H:S58G H:L99T H:A100V, V domains shown)
VH: B1 VH with E58G, F61H
VL: B1 VL
Turning to B2, the Kd was 457 nM in data set [1] and 2.08 nM in data set [2].

B3: M71: G1 variant: L1 R28N T30G; L2 L56I; H2 E54K A57Y; HC-FW3 L99T A100V (antibody, chains of the INN, looked up, variant L:R28N L:T30G L:L56I H:E54K H:A57Y H:L99T H:A100V, V domains shown)
VH: B1 VH with N57Y, E58S, F61H
VL: B1 VL with T30G, A50G, T56I
In the case of B3, the Kd in data set [1] was 118 nM.

B4: M65: G1 variant: L1 R28N T30G; L2 G50A L56I; H2 E54K A57C; HC-FW3 L99T A100V (antibody, chains of the INN, looked up, variant L:R28N L:T30G L:G50A L:L56I H:E54K H:A57C H:L99T H:A100V, V domains shown)
VH: B1 VH with N57C, E58S, F61H
VL: B1 VL with T30G, T56I
Regarding B4, the Kd in data set [1] is 226 nM; in data set [2] it was 5.02 nM.

B5: M31: G1 variant: L1 R28N T30G; H2 E54K A57G; HC-FW3 L99T A100V (antibody, chains of the INN, looked up, variant L:R28N L:T30G H:E54K H:A57G H:L99T H:A100V, V domains shown)
VH: B1 VH with N57G, E58S, F61H
VL: B1 VL with T30G, A50G, T56L
As for B5, the Kd in data set [1] was 201 nM; in data set [2] it was 2.17 nM.

B6: M23: G1 variant: L1 R28G; HC-FW3 L99T A100V (antibody, chains of the INN, looked up, variant L:R28G H:L99T H:A100V, V domains shown)
VH: B1 VH with K54E, N57A, E58S, F61H
VL: B1 VL with N28G, A50G, T56L
For the molecule B6, the figures for the Kd in data set [1] and in data set [2] were 44.4 nM and 0.81 nM, respectively.

B7: M55: G1 variant: L1 R28N T30A; L2 L56S; H2 E54K A57N S58E E64D; HC-FW3 L99T A100V (antibody, chains of the INN, looked up, variant L:R28N L:T30A L:L56S H:E54K H:A57N H:S58E H:E64D H:L99T H:A100V, V domains shown)
VH: B1 VH with F61H, E64D
VL: B1 VL with T30A, A50G, T56S
Turning to B7, the Kd in data set [1] is 325 nM; in data set [2], 2.99 nM.

B8: M73: G1 variant: L1 R28N T30G; L2 L56S; H2 E54K A57N S58Y E64D; HC-FW3 L99T A100V (antibody, chains of the INN, looked up, variant L:R28N L:T30G L:L56S H:E54K H:A57N H:S58Y H:E64D H:L99T H:A100V, V domains shown)
VH: B1 VH with E58Y, F61H, E64D
VL: B1 VL with T30G, A50G, T56S
With B8, the Kd is 167 nM in data set [1] and 1.59 nM in data set [2].

B9: M51: G1 variant: L1 R28N; L2 L56I; H2 E54K A57G; HC-FW3 L99T A100V (antibody, chains of the INN, looked up, variant L:R28N L:L56I H:E54K H:A57G H:L99T H:A100V, V domains shown)
VH: B1 VH with N57G, E58S, F61H
VL: B1 VL with A50G, T56I
Regarding B9, the figures for the Kd in data set [1] and in data set [2] were 65.6 nM and 0.82 nM, respectively.

B10: M77: G1 variant: L1 R28N T30S; L2 G50A L56T; H2 E54K A57D; HC-FW3 L99T A100V (antibody, chains of the INN, looked up, variant L:R28N L:T30S L:G50A L:L56T H:E54K H:A57D H:L99T H:A100V, V domains shown)
VH: B1 VH with N57D, E58S, F61H
VL: B1 VL with T30S
In the case of B10, the Kd in data set [1] was 794 nM; in data set [2], 2.98 nM.

B11: M83: G1 variant: L1 R28N T30V; L2 A51H L56T; H2 E54K A57N S58M H61F; HC-FW3 L99T A100V (antibody, chains of the INN, looked up, variant L:R28N L:T30V L:A51H L:L56T H:E54K H:A57N H:S58M H:H61F H:L99T H:A100V, V domains shown)
VH: B1 VH with E58M
VL: B1 VL with T30V, A50G, A51H
As for B11, in data set [2], the Kd is 5.83 nM.

B12: M75: G1 variant: L1 R28N T30G; L2 L56S; H2 E54K A57V; HC-FW3 L99T A100V (antibody, chains of the INN, looked up, variant L:R28N L:T30G L:L56S H:E54K H:A57V H:L99T H:A100V, V domains shown)
VH: B1 VH with N57V, E58S, F61H
VL: B1 VL with T30G, A50G, T56S
B12: the Kd in data set [1] was 1040 nM; in data set [2], 7.25 nM.

B13: M69: G1 variant: L1 R28N T30G; L2 L56I; H2 E54K A57N S58E; HC-FW3 L99T A100V (antibody, chains of the INN, looked up, variant L:R28N L:T30G L:L56I H:E54K H:A57N H:S58E H:L99T H:A100V, V domains shown)
VH: B1 VH with F61H
VL: B1 VL with T30G, A50G, T56I
B13: the results for the Kd in data set [1] and in data set [2] were 101 nM and 4.58 nM, respectively.

B14: M49: G1 variant: L1 R28N; L2 G50A L56T; H2 E54K A57N S58Y H61F; HC-FW3 L99T A100V (antibody, chains of the INN, looked up, variant L:R28N L:G50A L:L56T H:E54K H:A57N H:S58Y H:H61F H:L99T H:A100V, V domains shown)
VH: B1 VH with E58Y
VL: B1 VL
Take B14: the Kd is 822 nM in data set [1] and 3.72 nM in data set [2].

B15: M78: G1 variant: L1 R28N T30S; L2 G50A L56T; H2 E54K A57N S58T; HC-FW3 L99T A100V (antibody, chains of the INN, looked up, variant L:R28N L:T30S L:G50A L:L56T H:E54K H:A57N H:S58T H:L99T H:A100V, V domains shown)
VH: B1 VH with E58T, F61H
VL: B1 VL with T30S
As to B15, the Kd in data set [1] was 9280 nM; in data set [2], 8.19 nM.

B16: M37: G1 variant: L1 R28N T30S; H2 A57G; HC-FW3 L99T A100V (antibody, chains of the INN, looked up, variant L:R28N L:T30S H:A57G H:L99T H:A100V, V domains shown)
VH: B1 VH with K54E, N57G, E58S, F61H
VL: B1 VL with T30S, A50G, T56L
For B16, the Kd was 80.6 nM in data set [1] and 1.41 nM in data set [2].

B17: M84: G1 variant: L1 R28N T30V; L2 A51H L56T; H2 E54N A57N; HC-FW3 L99T A100V (antibody, chains of the INN, looked up, variant L:R28N L:T30V L:A51H L:L56T H:E54N H:A57N H:L99T H:A100V, V domains shown)
VH: B1 VH with K54N, E58S, F61H
VL: B1 VL with T30V, A50G, A51H
For B17, the Kd in data set [1] was 978 nM; in data set [2], 6.75 nM.

B18: M74: G1 variant: L1 R28N T30G; L2 L56S; H2 E54K A57S; HC-FW3 L99T A100V (antibody, chains of the INN, looked up, variant L:R28N L:T30G L:L56S H:E54K H:A57S H:L99T H:A100V, V domains shown)
VH: B1 VH with N57S, E58S, F61H
VL: B1 VL with T30G, A50G, T56S
Consider B18, for which the results for the Kd in data set [1] and in data set [2] were 335 nM and 3.73 nM, respectively.

B19: M27: G1 variant: L1 R28N T30A; HC-FW3 L99T A100V (antibody, chains of the INN, looked up, variant L:R28N L:T30A H:L99T H:A100V, V domains shown)
VH: B1 VH with K54E, N57A, E58S, F61H
VL: B1 VL with T30A, A50G, T56L
In the case of B19, the equilibrium dissociation constant (Kd) was 189 nM in data set [1] and 2.23 nM in data set [2].

B20: M24: G1 variant: L1 R28L; HC-FW3 L99T A100V (antibody, chains of the INN, looked up, variant L:R28L H:L99T H:A100V, V domains shown)
VH: B1 VH with K54E, N57A, E58S, F61H
VL: B1 VL with N28L, A50G, T56L
Consider B20, for which the Kd in data set [1] is 57.8 nM; in data set [2], 0.93 nM.

B21: M67: G1 variant: L1 R28N T30G; L2 L56I; H2 E54K A57F; HC-FW3 L99T A100V (antibody, chains of the INN, looked up, variant L:R28N L:T30G L:L56I H:E54K H:A57F H:L99T H:A100V, V domains shown)
VH: B1 VH with N57F, E58S, F61H
VL: B1 VL with T30G, A50G, T56I
As for B21, the Kd in data set [1] was 95 nM; in data set [2] it was 5.13 nM.

B22: M26: G1 variant: L1 R28N; H2 A57G; HC-FW3 L99T A100V (antibody, chains of the INN, looked up, variant L:R28N H:A57G H:L99T H:A100V, V domains shown)
VH: B1 VH with K54E, N57G, E58S, F61H
VL: B1 VL with A50G, T56L
Consider B22, for which the Kd was 51.3 nM in data set [1] and 0.93 nM in data set [2].

B23: M62: G1 variant: L1 R28N T30G; L2 A51H L56T; H2 E54K A57N S58E; HC-FW3 L99T A100V (antibody, chains of the INN, looked up, variant L:R28N L:T30G L:A51H L:L56T H:E54K H:A57N H:S58E H:L99T H:A100V, V domains shown)
VH: B1 VH with F61H
VL: B1 VL with T30G, A50G, A51H
As to B23, the values for the Kd in data set [1] and in data set [2] were 242 nM and 5.86 nM, respectively.

B24: M28: G1 variant: L1 R28N T30D; H2 E54R A57N; HC-FW3 L99T A100V (antibody, chains of the INN, looked up, variant L:R28N L:T30D H:E54R H:A57N H:L99T H:A100V, V domains shown)
VH: B1 VH with K54R, E58S, F61H
VL: B1 VL with T30D, A50G, T56L
For the molecule B24, the Kd was 69.4 nM in data set [1] and 0.62 nM in data set [2].
